Consider 167 variants from the RNAGym collection of RNA variant scans (doi:10.7554/elife.80360).

B1: Hairpin Ribozyme (parent)
chain: GUCCUCUUUCACGUGCGCGUGAAAGAGAGAAGUGAACCAGAGAAACACACGUUGUGGUAUAUUACCUGGUA

This series covers variants of B1. In words: self-cleavage, relative activity (ratio to wild type); higher = more cleavage; co-transcriptional.
A45U G68A: the self-cleavage was 0.169.
On to A45U G68U, for which the self-cleavage was determined as 0.258.
Take A44U A59C: the self-cleavage was found to be 0.173.
On to C46U U67G, for which the self-cleavage was found to be 0.171.
Then A44C C48U, with 0.0439; and C46A A47G, with 0.133; and C46A A47U, with 0.199.
For the variant C46A C50U, the self-cleavage turned out to be 0.111.
With A45C U70A, the self-cleavage is 0.222.
On to A45C U70C, for which the self-cleavage was 0.241.
Turning to A47U U55C, the self-cleavage turned out to be 0.203.
Take A47U U55G: the self-cleavage came to 0.128.
As to A44G A71C, the self-cleavage was found to be 0.143.
Take A47C U62A: the self-cleavage is 0.195.
The same measure for A43U A64C: 0.161; for A43U A64U: 0.266; for A45C A47U: 0.212.
Then A45C A47C, with 0.198; and A44C G56A, with 0.152; and A43U A47G, with 0.121.
As to A43U A47U, the self-cleavage worked out at 0.145.
Take A45C G57U: the self-cleavage was 0.249.
Then A45U G51A, with 0.075; and A45U C50A, with 0.145.
Turning to A44U G56U, the self-cleavage was 0.231.
Turning to C46A C65G, the self-cleavage worked out at 0.146.
On to C46A C65A, for which the self-cleavage amounted to 0.13.
For C46A G57C, the self-cleavage turned out to be 0.156.
For the variant A45G C65U, the self-cleavage came to 0.146.
With A45G C65A, the self-cleavage is 0.349.
As for A45G C65G, the self-cleavage was found to be 0.168.
Regarding C46G G54A, the self-cleavage is 0.134.
Consider C46G G54U, for which the self-cleavage stood at 0.119.
Then A44C U55C, with 0.172; and A44C U55G, with 0.102; and A43U G69U, with 0.174.
In the case of A44G A61G, the self-cleavage was found to be 0.152.
A44G A61U: the self-cleavage is 0.189.
Regarding A44G A61C, the self-cleavage was found to be 0.0999.
As to A44C C65A, the self-cleavage was found to be 0.213.
With A45U G57C, the self-cleavage was 0.15.
Then A47U G68A, with 0.148; and A47U G68C, with 0.26; and A47C G56C, with 0.161.
As for A45C G56U, the self-cleavage was 0.203.
Regarding A47C A64U, the self-cleavage is 0.218.
On to A44C U60C, for which the self-cleavage was determined as 0.0498.
Turning to A45C A64G, the self-cleavage stood at 0.259.
Consider C46A A59G, for which the self-cleavage was 0.107.
A47G G57C: the self-cleavage was 0.159.
Regarding A44G U52G, the self-cleavage came to 0.231.
Turning to A44C A49U, the self-cleavage was 0.0612.
Consider A45G A49G, for which the self-cleavage was found to be 0.177.
With A45G A49U, the self-cleavage was found to be 0.172.
Consider A44U A61U, for which the self-cleavage came out at 0.124.
A44U A61C: the self-cleavage turned out to be 0.0833.
For C46A U63A, the self-cleavage was found to be 0.12.
Then C46A U63C, with 0.225; and A47U C50A, with 0.113; and A47U C50G, with 0.28.
On to A44C A61G, for which the self-cleavage is 0.115.
For C46G U53G, the self-cleavage turned out to be 0.186.
In the case of A44C G69A, the self-cleavage stood at 0.121.
The same measure for C46U C50U: 0.227; for C46U C50A: 0.0957.
The same measure for A47C U58G: 0.172.
Then A44G U63A, with 0.207; and A47C U53A, with 0.28; and A44C U62G, with 0.304.
Regarding C46U A47U, the self-cleavage is 0.163.
For C46U A47C, the self-cleavage was 0.149.
For C46U A47G, the self-cleavage stood at 0.0613.
As to C46A G68A, the self-cleavage was 0.12.
For C46A G68C, the self-cleavage stood at 0.277.
A43U A49U: the self-cleavage came to 0.27.
Consider A45G U67C, for which the self-cleavage turned out to be 0.12.
Regarding A44U A71G, the self-cleavage is 0.293.
In the case of A47G U53G, the self-cleavage was 0.338.
For the variant C46G C65U, the self-cleavage came to 0.107.
As for A44G U60C, the self-cleavage worked out at 0.0999.
With A44G U60G, the self-cleavage amounted to 0.0699.
Then A47G U63C, with 0.248.
In the case of A44U C65A, the self-cleavage turned out to be 0.184.
As for A44U C65G, the self-cleavage came out at 0.178.
The same measure for A44G U53C: 0.248.
On to C46G U55A, for which the self-cleavage was 0.142.
As for A44G C66A, the self-cleavage came out at 0.022.
As for A44U G57A, the self-cleavage was 0.0753.
The same measure for A47U U67A: 0.103; for A44C G68C: 0.0374; for A45U C66G: 0.236.
Consider A44G C46A, for which the self-cleavage was 0.184.
A44G C46U: the self-cleavage was 0.139.
The same measure for A44C A45G: 0.208.
On to C46G G68C, for which the self-cleavage worked out at 0.13.
Take C46U A71C: the self-cleavage turned out to be 0.151.
Then C46U A71G, with 0.302; and A43U C46G, with 0.0741; and A43U C46A, with 0.0823.
Take A45G G51C: the self-cleavage amounted to 0.176.
Regarding A47G U52G, the self-cleavage is 0.259.
With C46A U62A, the self-cleavage was 0.132.
As to A45C U58G, the self-cleavage stood at 0.3.
Then A45C U58A, with 0.309; and A47C G51A, with 0.303.
In the case of A47C G51U, the self-cleavage was 0.392.
In the case of A45G U52C, the self-cleavage came to 0.0811.
For A45G U52A, the self-cleavage was 0.0852.
Regarding A45U U60C, the self-cleavage amounted to 0.112.
Take C46G U63C: the self-cleavage was determined as 0.103.
For the variant C46G U63G, the self-cleavage amounted to 0.0876.
Then A44C A71U, with 0.152.
As for A44U A45U, the self-cleavage came to 0.229.
With A44U A45G, the self-cleavage is 0.102.
The same measure for A47C A61G: 0.17; for A44G C48A: 0.102.
For A44U U53G, the self-cleavage was 0.159.
The same measure for A44U U53A: 0.079; for A47U U58A: 0.106.
On to A44U C48U, for which the self-cleavage is 0.15.
In the case of A44U U52C, the self-cleavage is 0.059.
Consider A47G U67G, for which the self-cleavage turned out to be 0.0884.
Regarding A43U A71U, the self-cleavage came out at 0.179.
Regarding A43U A71G, the self-cleavage was 0.247.
In the case of A44G A49U, the self-cleavage worked out at 0.0347.
The same measure for A45G U58C: 0.269; for A44G U70C: 0.262; for A45C G51C: 0.0857.
For the variant C46U G54A, the self-cleavage was 0.237.
Take A47C U63A: the self-cleavage is 0.127.
As for A47C U63C, the self-cleavage was found to be 0.0902.
For A47C U63G, the self-cleavage came to 0.104.
With A44C G51U, the self-cleavage was found to be 0.114.
In the case of A44C G51A, the self-cleavage was determined as 0.0817.
Regarding A47U U52G, the self-cleavage was found to be 0.256.
Then A47U U52A, with 0.148; and A47C A59G, with 0.0267; and A44C U53C, with 0.108.
Then A44C U53A, with 0.186.
In the case of A44U G68U, the self-cleavage was 0.187.
Take A44G G54A: the self-cleavage is 0.151.
Regarding C46U A64G, the self-cleavage was 0.021.
Turning to C46U U55C, the self-cleavage is 0.0817.
Then C46U U55G, with 0.125.
Then C46U U55A, with 0.115; and A47U A61U, with 0.211.
As for C46A A71G, the self-cleavage was 0.24.
With A43U U67C, the self-cleavage is 0.109.
As for A44C C46G, the self-cleavage was 0.0995.
As for A44C C46U, the self-cleavage amounted to 0.238.
Consider A44C C46A, for which the self-cleavage was 0.141.
A43U U52C: the self-cleavage worked out at 0.143.
In the case of A43U U52G, the self-cleavage is 0.139.
Then A44U U63G, with 0.209; and A47G G54C, with 0.266.
For A47G G54A, the self-cleavage worked out at 0.177.
A45G G57C: the self-cleavage turned out to be 0.0828.
For A44C U52G, the self-cleavage came out at 0.203.
With C46G A71C, the self-cleavage amounted to 0.211.
Consider A47C C50G, for which the self-cleavage is 0.0249.
Turning to C46G C50A, the self-cleavage stood at 0.0593.
In the case of C46G C50G, the self-cleavage came to 0.217.
With C46G U70G, the self-cleavage was found to be 0.149.
In the case of C46G U70A, the self-cleavage stood at 0.161.
On to A45C U67C, for which the self-cleavage turned out to be 0.128.
Take A44C U63C: the self-cleavage turned out to be 0.172.
The same measure for A44C U63A: 0.128.
